This series in a line: yeast display, Sf9 membrane polyspecificity reagent, FACS + sequencing; frameworks hold sequencing errors. The method, boiled down:
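In a synthetic yeast display library (Saccharomyces cerevisiae BJ5465), nanobody expression was induced with galactose for 36–48 hours. FACS gates were set low and high (top ~1%) using anti-HA fluorescence for expression and streptavidin fluorescence for binding of the Sf9 membrane reagent. Each polyreactivity label is drawn from the gate of origin.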
For “QVQHVESGGGLVQAGGSLRLSCAASGSIFNRNAMGWYRQAPGKERELVAAITRRGGSTYYADSVKVRFTISRDNAMNTVYLQMNSLKPEDTAVYYCAAATRKTEYDYWGQGSQVTVSS”, the “polyreactivity (PSR sort gate)” value was “high polyreactivity”. Then “QVHLVESGGGLVQAGGSLRLSSAASGITFDDYAMGWYRQAPGKERELVAAISVSGGDTYYADSVKGRFTISRDNAKNTVYLQMNSLKPEVTAVYYCAAEVVSPRWYDYWGQGTQLTVSS”, with “low polyreactivity”; and “QVQLEESGGGLVQAGGSLRLSCAASGSTFYPYAMGWYIQAPGTERELVAAISSRDGRTYYADSVKGRFTISRDNAKNTVYLQMNSLTPEDTAVYYCAASSFNNGHRYDYWGQGTQVTVSS”, with “high polyreactivity”; and “QVQIVESGGGLVQAGGSLRLSCAASGRISKFYTMGWYRQAPGKERELVADISYSGGSTYYADSVKGRFTISRDIEKNTVYLQMNSLKPEDTAVYFCSVDGLQRAIDYWGQGTQVTVSS”, with “high polyreactivity”.

“QVQLVESGGGLVQAGGSLRLSCAASGFIFNAYVMGWYRQAPGKERELVAAITASGGSTYYADSVKGRFTISRDNAKNTVYLQMNSLKPEDTAVYYCAAAHPYDSRFDYWGQGTQVTVSS”: the “polyreactivity (PSR sort gate)” value is reported as “high polyreactivity”.

As to “QVQLVESGGGLVQAGGSLRLSCAASGRTFWTNAMGWYRQAPGKERELVAAIDRSSTSTYYADSVKGRFTISRDNAKNTVYLQMNSLKPEDTAVYYCAAENPVIVETPYGGFVGKGDSWGQGTQVTVSS”, the “polyreactivity (PSR sort gate)” value is reported as “low polyreactivity”. Then “QVQLVESGVGLVQAGGSLRLSCAASGITFREYAMGWYRQAPGKERELVAAIRYSGGSTYYADSVKGRFTISRDNAMNTVYLQMNSLKPEDTAVYYCAADPRRTLSPQLSDYWGLGTQVTVSS”, with “high polyreactivity”; and “QVQLVESGGGLVQAGGSLRLSCAASGSILTVYAMGWYRQAHGKERELVARIRSGDRTYYADSVKGRFTISRDNAKNTVYLQMNSLKPEDTAVYYCAAGSQRRYYHTNWDSFNYWGQGTQVTVSS”, with “low polyreactivity”; and “QVQLVESGGGLVQAGGSLRLSCAASGRIFYVYAMGWYRAPGKERELVASISYIGGSTYYADSVKGRFTISRDNAKNTVYLQMNSLKPEDTAVYYCATDYYGYTVSYLVPSWPDDYWGQGTQVTVSS”, with “low polyreactivity”.

Take “QVQLVESGGGLVQAGGSLRLSCAASGSIFNRNVMGWYRQAPGKERELVAAITWSGASTYYADSVKGRFTISRDNAKNTVYLQMNSLKPEDTAVYYCAARGPSRRRDGSDYWGQGTQVTVSS”: the “polyreactivity (PSR sort gate)” value is “high polyreactivity”. Turning to “QVQLVESGGGLVQAGGSLRLSCAASGSTFGIYAMGWYRQAPGKERELVAAIRKNGGSTYYADSVKGRFTISRDNAKNTVYLQMNSLKPEDTAVYYCNADYWIYPSYDYWGQGTQVTVSS”, the “polyreactivity (PSR sort gate)” value is “low polyreactivity”. Then “QVQLVESGGGLVQAGGSLRLSCAASGRTFRIYAMGWYRQAPGKERELVAAISARGGSTYYADSVKGRFTISRDNAKNTVYLQMNSLKPEDTAVYYCAAEKTRRVDYWGQGTQVTVSS”, with “high polyreactivity”. Consider “QVQLVESGGGLVQAGGILRLSCAASGQIFTYYVMGWYRQAPGKERELVAAIDWDSGSTSYADSLKGRFTISRDNAKNTVYLQMNSLKPEDTAVYYCAADEVLSGYYTLDYWGQGTQVTVSS”, for which the “polyreactivity (PSR sort gate)” value is recorded as “low polyreactivity”.

For “QVQLVESGGGLVQAGGSLRLSCAASGSTLATYTMGWYRQAPGKERELVAAISFGGSTYYADSVKGRFTISRDNAKNTVYLQMNSLKPEDTAVYYCAVYGDSYWGAYYYSDGYWGQGSQVTVSS”, the “polyreactivity (PSR sort gate)” value is listed as “low polyreactivity”. On to “QVQLVESGGGLFQAGGSLGLSCAASGSTFSKYAMGWSRQAPGKERELVAAISSGGRTNYADSVKGRFTISRDNAKNTVYLHMNSLKPEDTAVYDCAALWGYWAYYYWGQGTQVTVSS”, for which the “polyreactivity (PSR sort gate)” value is listed as “low polyreactivity”.

With “QVQLVESGGGLVQAGGSLRLSCAASGYIFRFNAMGWYRQAPGKERELVAVITSGARTYYADSVKGRFTISRDNAKNTFYLLMNSLKPEDTAVYYCNAGARRYLYDYWGQGTQVTVSS”, the “polyreactivity (PSR sort gate)” value is listed as “low polyreactivity”. “QVQLGESGGGLVQAGGSLRLSCAASGSTFVRYAMGWYRQAPGKERELVAGISYSGGRTYYADSVKGRFTISRDNAKNTVYLQMNSLKPEDTAVYYCAAEGTTSWWVKYGYWGQGTQVTVSS”: the “polyreactivity (PSR sort gate)” value is “low polyreactivity”.

“QVQLVESGGGLVQAGGSLRLSCAASGSTFGKYAMGWYRQAPGKERELVASISRSGASTYYADSVKGRFTISRDNAKNTVYLQMNSLKPEDTAVYYCNKARNPEGYWRYDYWGQGTQVTVSS”: the “polyreactivity (PSR sort gate)” value was “high polyreactivity”. Then “QVQLVESGGGLVQAGGRLRLSCAASRRIFDYNDRGWYRQAPGKERELVAAINDDSRTNYADSVKGRFTISRDNAKNTVYLQMNSLKPEDTAVYYCNNVYGRSGIGFDYWGQGTQVTVSS”, with “low polyreactivity”. Then “QVQLVESGGGLVQAGGSLRLSCAASGSIFNWYAMGWYRKAPGKERELVAAIRSGGNTKYADSVKGRFTISRDNAKNTVYLQMTSLKPEDTAVYYCAAGVYHRRLEYYYWGQGSQVTVSS”, with “low polyreactivity”. As for “QVQLVESGGGLVQAGGSIRLSCAASGRTFGYYAMGWYRQAPGKERELVAAISWSGGRTYYADSVKGRFTISRDNAKNTVYLQMNSLKPEDTAVYYCAAQTAGFWYDYWGQGTQVTVSS”, the “polyreactivity (PSR sort gate)” value is on record as “high polyreactivity”. “QVQLVESGGGLVQAGGSLRLSCAASGFTFVYKDMGWYRQAPGKEREFVAAISSGGSTYYADSVKGRFTISRDNAKNTVYLQMNSLKPEDTAVYYCARRNPGPKHARYGYWGQGTQVNVSS”: the “polyreactivity (PSR sort gate)” value is “high polyreactivity”.

For “QVQLVESGGGLVQAGASLRISCAASGYTFYANAMGWYIQAPGKEREFVASITWSGGSTYYADSVKGRFTISRDNAKNTVYLQMNSLKPEDTAVYYCAAESWFKYDYWGQGTQVTLSS”, the “polyreactivity (PSR sort gate)” value is “low polyreactivity”.

In the case of “QVQLVESGGGLVQAGGSLRLSCAASGFIFPAYAMGWYRQAPGKEMALVAAITSGGSTNYADSVKGRFTISRDNAKNTVYLQMNSLKPEDTAVYYCAADFDSILSVRSYRSRWYDYWGQGTQVAVSS”, the “polyreactivity (PSR sort gate)” value was “low polyreactivity”. Then “QDQLVESGGGLVQAGASLRLSCAASGSIFYHNTMGWYRQAPGKERELLTYYADSVKRRFTISRDNAKNTVYLQMNSLKPEDTAVYYCAASPVSRTGPGDYDYWGQGTQVTVSS”, with “low polyreactivity”; and “QVQRVESGGGLDQAGGSLRLSCAAYGRTFGLNAMGWYRQAPGKESELVAVISFGDGGKYYADSVKGRFTISRDNAKHTVYLQMNSLKPEDTAVYYCATEYQSTSVWGGHLVINPYDYWGQGTQVTVSS”, with “low polyreactivity”; and “QVQLVESGGGLVQAGGSLRLSCAASGSTFYKNAMGWYRQAPGKERELVARISGRGGSTYYADSVKGRFTISRDNAKNTVYLQMNSLKPEDTAVYYCNALYRVFVGTYDYWGQGTQVTVSS”, with “high polyreactivity”. On to “QVQLVESGGGLVKAGGSLRLSCAASGGTFNRNAMGWYRQAPAKERELVAAICSSGGRTYYADSVKGRFTISRDNAKNTVYLQMNSLKPEDTAGYYCAAGRKGHGGAYDSWGQGTQVTVSS”, for which the “polyreactivity (PSR sort gate)” value is reported as “high polyreactivity”. For the sequence “QVQLVESGGGLVQAGGSLRLSCAASGSIFYPYAMGWYRQAPGKERELLASITINDGSTYYADSVKGRFTISRDNAKNTVYLQMNSLKPEDTAVYYCNVEPVPGFGSEYEYWGQGTQVTVSS”, the “polyreactivity (PSR sort gate)” value is “low polyreactivity”.

As to “QVQLVESGGGLVQAGGSLRLSCAASGFTFYLNAKGWYRQAPGKERELVAAITGSGGSTYYADSVKGRFTISRDNAKNTVYLQMNSLKPEDTAVYYCAADLYFYVISSGYGFYYWGQGTQVTVSS”, the “polyreactivity (PSR sort gate)” value is on record as “low polyreactivity”. Then “QVQLVESGGGLVQAGGSLRLSCAASGSIFGSNTMGWYRQAPGKERELVAAINSSGGSTYYADSVKGRFTISRDNAKNTVYLQMNSLKPEDTEVYYCNAASYRFFPYLYYYWGQGTQVTVSS”, with “high polyreactivity”; and “QVQLVESGGGLVQAGGSLRLSCAASGGTFNTYAMGWYRPAPGKERELVAAITSSGGSTFYADSVKWRFTISRDNAKNTVYLQMNSLKPEDTAVYYCAAKSYWTIVYRHPGYYYWGQGTQVTVSS”, with “low polyreactivity”. Then “QVQLVESGGGLVQAGGSLRLSCAASGFTFTSYVMGWSRQAPGKEREFVAAITRSAGGTYYADSVKGRFTISRDNAKNTVYLQMNSLKPEDTAVYYCAAVYRSGSRYYLGWYNYWGQGTQVTVSS”, with “high polyreactivity”; and “QVQLVESGGGLVQAGGSLRLSCAASGYTFLPYAMGLYRQAPGKERELVADISSGGTTYYADSVKGRFTISRDNAKNTVYLQMNSLKPEDTAVYYCARASLPTYDWGQGTQVTVSS”, with “low polyreactivity”; and “QVQLVESGGGLVQAGGSLRLSCAASGRIFDYAMGWYRQAPGKERELVAAINSAGSTNYADSVKGRFTISRDNAKNTVYLQMNSLKPEDTAVYYCNTDYGSSYNYWGQGTQVTVSS”, with “high polyreactivity”. Then “QVQLVESGGGLVQAGGSLRLSCAASGYTFGQYAMGWYRQAPGKEREFVAAINRSGGSTYYADSVKGRFTISRDNAKNTVYLQMNSLKPEDTAVYYCNAGYRRSSHFREHDYWGQGTQVTVSS”, with “high polyreactivity”. In the case of “QVQLVESGGGLVQAGGSLRLSCAASGRTFFPYAMGWYRQAAGKERELVDAISLDDDTTYYADSVKGRFTISRDTAQNTVYLQMNSLKPEDTAVYYCATDGIVIYGGYYTGYDYWGQGTQVTVSS”, the “polyreactivity (PSR sort gate)” value was “high polyreactivity”. Turning to “QVQLVESGGGLVQAGGSLRLSCAASGSTFFDYAMGWYRQAPGKEREFVAAISRSGDTNYADSVKGRFTISRDNAKNTVYLQMNSLKPEDTAVYYCAKDWAYRRHWVGFYYWGQGTQVTVSS”, the “polyreactivity (PSR sort gate)” value was “low polyreactivity”. Then “QVQLVESGGGLVQSGGSLRLSCAASGSIFIYYAMGWYRHAPGKERELVAAIDYSGDSTYYADSVKGRFTISRDNAKNTVYLQMNSLKPEDTAVYDCAVYYAGWGDYWGQGTQVTVSS”, with “low polyreactivity”; and “QVQLVESGGGLVQAGGSLRLSCAASGSIFIGYAMGWNRQAPGKERELVAGISSNGGTTYYADSVKGRFTISRDNAKNTVYLQMNSLKPEDTAVYYCATQYYARGYLYDYWGHGTQVTVSS”, with “low polyreactivity”. Then “QVQLVESGGGLVQAGGSLRLSCAASGSIFNSNAMGWYRQAPGTERELDAGISNIGGSTYYADSVKGRFTISRDYAKNTVYLQMNSLKPEDTAVYFCNADRLQPNRYYYWGQGTQVTVSS”, with “high polyreactivity”.

The record behind these values is the nanobody polyreactivity screen of Harvey et al. (2022).
